Values belong to the binder of their own block, whether it stands above or below them.
Key:
cryo-EM structure = target: the molecule itself; assay: cryo-EM structure
KaiC-R468C = target: T1, KaiC-R468C (Synechococcus elongatus, UniProt Q79PF4 1-519, R468C); assay: native gel or EMSA
T1 sequence: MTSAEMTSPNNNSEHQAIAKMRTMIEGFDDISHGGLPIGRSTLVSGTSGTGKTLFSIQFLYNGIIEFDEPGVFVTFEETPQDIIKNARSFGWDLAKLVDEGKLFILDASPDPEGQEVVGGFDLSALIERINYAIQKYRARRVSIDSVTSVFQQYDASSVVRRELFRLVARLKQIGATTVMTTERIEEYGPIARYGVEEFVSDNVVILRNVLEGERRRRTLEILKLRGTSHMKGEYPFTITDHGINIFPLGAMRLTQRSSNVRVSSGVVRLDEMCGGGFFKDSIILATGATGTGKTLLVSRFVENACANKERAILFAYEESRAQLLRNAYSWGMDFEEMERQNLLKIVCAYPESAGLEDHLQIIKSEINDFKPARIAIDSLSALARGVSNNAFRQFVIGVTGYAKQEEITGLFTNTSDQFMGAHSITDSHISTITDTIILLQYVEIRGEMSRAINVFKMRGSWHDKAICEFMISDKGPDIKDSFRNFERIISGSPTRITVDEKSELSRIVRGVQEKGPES

B1: KaiC-Δ489 (C-terminally truncated form of S. elongatus KaiC) (domain or fragment, Synechococcus elongatus, UniProt Q79PF4 1-489, looked up)
chain: MTSAEMTSPNNNSEHQAIAKMRTMIEGFDDISHGGLPIGRSTLVSGTSGTGKTLFSIQFLYNGIIEFDEPGVFVTFEETPQDIIKNARSFGWDLAKLVDEGKLFILDASPDPEGQEVVGGFDLSALIERINYAIQKYRARRVSIDSVTSVFQQYDASSVVRRELFRLVARLKQIGATTVMTTERIEEYGPIARYGVEEFVSDNVVILRNVLEGERRRRTLEILKLRGTSHMKGEYPFTITDHGINIFPLGAMRLTQRSSNVRVSSGVVRLDEMCGGGFFKDSIILATGATGTGKTLLVSRFVENACANKERAILFAYEESRAQLLRNAYSWGMDFEEMERQNLLKIVCAYPESAGLEDHLQIIKSEINDFKPARIAIDSLSALARGVSNNAFRQFVIGVTGYAKQEEITGLFTNTSDQFMGAHSITDSHISTITDTIILLQYVEIRGEMSRAINVFKMRGSWHDKAIREFMISDKGPDIKDSFRNFERI
modifications: persistently phosphorylated (hyper-phosphorylated); sites not determined for this sample
stoichiometry N (cryo-EM structure): 6

binding result (KaiC-R468C): binds
B2: wild-type Synechococcus elongatus KaiB (natural protein, UniProt Q79PF5 1-102, looked up)
chain: MSPRKTYILKLYVAGNTPNSVRALKTLKNILEVEFQGVYALKVIDVLKNPQLAEEDKILATPTLAKVLPLPVRRIIGDLSDREKVLIGLDLLYGELQDSDDF

Source: publication PMC3940072 (Journal of molecular biology, 2013)
